Test results as given in IntAct's records for PubMed 35512704.

B1: Speckle-type POZ protein (Homo sapiens), O43791 (parent)
chain: MSRVPSPPPPAEMSSGPVAESWCYTQIKVVKFSYMWTINNFSFCREEMGEVIKSSTFSSGANDKLKWCLRVNPKGLDEESKDYLSLYLLLVSCPKSEVRAKFKFSILNAKGEETKAMESQRAYRFVQGKDWGFKKFIRRDFLLDEANGLLPDDKLTLFCEVSVVQDSVNISGQNTMNMVKVPECRLADELGGLWENSRFTDCCLCVAGQEFQAHKAILAARSPVFSAMFEHEMEESKKNRVEINDVEPEVFKEMMCFIYTGKAPNLDKMADDLLAAADKYALERLKVMCEDALCSNLSVENAAEILILADLHSADQLKTQAVDFINYHASDVLETSGWKSMVVSHPHLVAEAYRSLASAQCPFLGPPRKRLKQS
partner: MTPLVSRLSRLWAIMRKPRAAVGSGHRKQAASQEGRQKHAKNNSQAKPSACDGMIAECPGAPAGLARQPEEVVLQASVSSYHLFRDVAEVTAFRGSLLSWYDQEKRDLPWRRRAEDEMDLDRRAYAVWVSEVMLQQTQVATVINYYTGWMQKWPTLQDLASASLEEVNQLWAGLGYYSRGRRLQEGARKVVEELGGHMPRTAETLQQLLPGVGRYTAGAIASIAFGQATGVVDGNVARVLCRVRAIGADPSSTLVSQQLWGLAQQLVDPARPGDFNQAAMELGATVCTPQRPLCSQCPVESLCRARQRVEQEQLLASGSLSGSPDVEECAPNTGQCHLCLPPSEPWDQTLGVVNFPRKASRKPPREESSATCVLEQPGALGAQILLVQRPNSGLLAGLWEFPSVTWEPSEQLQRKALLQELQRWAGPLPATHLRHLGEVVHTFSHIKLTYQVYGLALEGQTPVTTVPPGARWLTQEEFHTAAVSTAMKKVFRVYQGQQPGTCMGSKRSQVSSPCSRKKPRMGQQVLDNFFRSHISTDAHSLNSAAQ
B2: Speckle-type POZ protein (Homo sapiens), O43791 (parent)
chain: B1 chain
partner: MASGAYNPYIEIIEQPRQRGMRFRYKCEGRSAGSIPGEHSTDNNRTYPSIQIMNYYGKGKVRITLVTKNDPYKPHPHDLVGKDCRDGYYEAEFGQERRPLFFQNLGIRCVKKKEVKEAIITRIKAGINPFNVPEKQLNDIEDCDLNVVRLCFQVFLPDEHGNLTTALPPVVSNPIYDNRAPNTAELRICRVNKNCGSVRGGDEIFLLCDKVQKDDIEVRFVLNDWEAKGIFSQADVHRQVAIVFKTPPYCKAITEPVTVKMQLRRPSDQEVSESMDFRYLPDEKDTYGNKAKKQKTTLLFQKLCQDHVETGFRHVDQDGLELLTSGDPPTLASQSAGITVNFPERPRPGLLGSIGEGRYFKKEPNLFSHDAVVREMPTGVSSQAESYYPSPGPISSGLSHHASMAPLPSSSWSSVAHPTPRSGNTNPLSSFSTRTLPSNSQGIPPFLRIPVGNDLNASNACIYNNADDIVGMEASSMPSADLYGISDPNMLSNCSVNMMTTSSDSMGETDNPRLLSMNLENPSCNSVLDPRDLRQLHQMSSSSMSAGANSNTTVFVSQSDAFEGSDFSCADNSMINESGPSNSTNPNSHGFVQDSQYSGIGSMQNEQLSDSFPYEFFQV
B3: Speckle-type POZ protein (Homo sapiens), O43791 (parent)
chain: B1 chain
partner: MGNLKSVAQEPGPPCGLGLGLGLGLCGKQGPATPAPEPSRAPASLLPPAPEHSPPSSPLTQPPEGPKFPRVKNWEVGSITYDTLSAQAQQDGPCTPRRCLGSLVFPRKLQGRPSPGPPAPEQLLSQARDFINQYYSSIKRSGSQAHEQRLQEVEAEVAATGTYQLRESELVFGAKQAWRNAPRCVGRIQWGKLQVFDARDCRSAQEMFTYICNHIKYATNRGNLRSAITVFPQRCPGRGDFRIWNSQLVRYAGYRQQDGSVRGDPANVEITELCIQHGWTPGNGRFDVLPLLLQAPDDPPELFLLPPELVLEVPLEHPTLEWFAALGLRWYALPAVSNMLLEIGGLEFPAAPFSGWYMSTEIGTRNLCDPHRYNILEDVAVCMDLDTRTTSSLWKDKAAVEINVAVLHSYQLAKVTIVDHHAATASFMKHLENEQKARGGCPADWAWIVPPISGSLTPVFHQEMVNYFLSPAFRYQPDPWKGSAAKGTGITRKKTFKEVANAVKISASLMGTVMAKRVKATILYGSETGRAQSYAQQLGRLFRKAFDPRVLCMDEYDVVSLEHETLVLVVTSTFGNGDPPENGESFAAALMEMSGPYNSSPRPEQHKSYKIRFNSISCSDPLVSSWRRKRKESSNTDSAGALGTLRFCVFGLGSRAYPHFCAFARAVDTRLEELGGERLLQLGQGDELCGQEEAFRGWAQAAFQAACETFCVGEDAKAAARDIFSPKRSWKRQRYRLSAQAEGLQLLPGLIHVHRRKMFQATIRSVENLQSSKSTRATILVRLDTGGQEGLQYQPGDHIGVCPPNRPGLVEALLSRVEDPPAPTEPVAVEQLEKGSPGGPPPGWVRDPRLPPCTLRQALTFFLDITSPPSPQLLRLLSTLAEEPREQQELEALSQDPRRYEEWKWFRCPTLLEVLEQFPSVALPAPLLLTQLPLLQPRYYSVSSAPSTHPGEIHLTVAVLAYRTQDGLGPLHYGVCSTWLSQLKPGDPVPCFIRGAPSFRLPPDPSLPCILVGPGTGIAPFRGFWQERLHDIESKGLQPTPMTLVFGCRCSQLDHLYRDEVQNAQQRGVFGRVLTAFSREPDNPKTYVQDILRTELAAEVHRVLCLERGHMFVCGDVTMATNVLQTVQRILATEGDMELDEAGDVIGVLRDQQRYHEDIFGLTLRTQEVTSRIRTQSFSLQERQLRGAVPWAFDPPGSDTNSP
B4: Speckle-type POZ protein (Homo sapiens), O43791 (parent)
chain: B1 chain
partner: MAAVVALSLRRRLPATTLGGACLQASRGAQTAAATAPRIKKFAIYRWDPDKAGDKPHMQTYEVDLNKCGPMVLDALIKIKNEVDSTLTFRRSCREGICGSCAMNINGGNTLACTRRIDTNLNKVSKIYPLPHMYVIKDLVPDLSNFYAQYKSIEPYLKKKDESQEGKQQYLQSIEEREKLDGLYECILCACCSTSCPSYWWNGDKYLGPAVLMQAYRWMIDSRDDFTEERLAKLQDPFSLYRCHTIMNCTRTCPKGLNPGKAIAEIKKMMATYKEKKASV
B5: Speckle-type POZ protein (Homo sapiens), O43791 (parent)
chain: B1 chain
partner: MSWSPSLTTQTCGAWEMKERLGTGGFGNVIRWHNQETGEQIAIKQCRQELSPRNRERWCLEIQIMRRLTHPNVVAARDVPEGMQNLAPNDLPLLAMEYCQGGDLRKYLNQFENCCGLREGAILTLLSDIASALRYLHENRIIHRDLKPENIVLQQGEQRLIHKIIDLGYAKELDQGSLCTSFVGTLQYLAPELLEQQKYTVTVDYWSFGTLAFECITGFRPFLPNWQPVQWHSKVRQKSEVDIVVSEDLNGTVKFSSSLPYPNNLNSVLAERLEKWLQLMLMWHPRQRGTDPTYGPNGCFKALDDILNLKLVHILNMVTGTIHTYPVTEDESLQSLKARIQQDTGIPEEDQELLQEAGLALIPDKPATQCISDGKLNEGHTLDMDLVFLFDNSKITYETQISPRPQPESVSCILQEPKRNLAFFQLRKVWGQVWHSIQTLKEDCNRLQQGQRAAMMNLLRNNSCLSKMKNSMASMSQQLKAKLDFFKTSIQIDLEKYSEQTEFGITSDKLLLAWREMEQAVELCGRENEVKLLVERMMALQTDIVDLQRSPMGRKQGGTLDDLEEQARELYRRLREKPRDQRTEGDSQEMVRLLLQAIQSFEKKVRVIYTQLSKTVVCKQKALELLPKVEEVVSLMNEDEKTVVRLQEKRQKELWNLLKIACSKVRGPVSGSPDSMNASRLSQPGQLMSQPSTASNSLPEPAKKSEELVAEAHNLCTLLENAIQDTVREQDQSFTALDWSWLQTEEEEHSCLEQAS
B6: Speckle-type POZ protein (Homo sapiens), O43791 (parent)
chain: B1 chain
partner: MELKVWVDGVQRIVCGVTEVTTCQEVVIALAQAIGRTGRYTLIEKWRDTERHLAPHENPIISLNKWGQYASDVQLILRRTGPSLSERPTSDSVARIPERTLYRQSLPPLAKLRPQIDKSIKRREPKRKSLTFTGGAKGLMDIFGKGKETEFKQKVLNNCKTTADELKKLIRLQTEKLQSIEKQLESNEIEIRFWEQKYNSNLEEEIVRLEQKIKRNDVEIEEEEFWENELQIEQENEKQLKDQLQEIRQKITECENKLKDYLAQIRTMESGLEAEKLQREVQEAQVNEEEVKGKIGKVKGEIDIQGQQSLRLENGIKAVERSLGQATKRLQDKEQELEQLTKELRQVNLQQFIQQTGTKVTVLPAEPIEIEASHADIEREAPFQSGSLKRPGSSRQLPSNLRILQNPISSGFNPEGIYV

Variants of: B1
Conditions: with mutyh_human MUTYH
In the case of F133L, the “effect of a mutation on the interaction” value is reported as “with no effect”.

Variants of: B1
Conditions: with mutyh_human MUTYH
Remark: another data set of the same source
F133V was tested, and the “effect of a mutation on the interaction” value was “with no effect”.

Variants of: B1
Conditions: with mutyh_human MUTYH
Remark: another data set of the same source
Y87C was tested, and the “effect of a mutation on the interaction” value was “with no effect”.

Variants of: B2
Conditions: with rel_human REL
For F133V, the “effect of a mutation on the interaction” value was “with no effect”.

Variants of: B2
Conditions: with rel_human REL
Remark: another data set of the same source
F133L was tested, and the “effect of a mutation on the interaction” value was “causing an interaction”.

Variants of: B2
Conditions: with rel_human REL
Remark: another data set of the same source
In the case of F133L, the “effect of a mutation on the interaction” value is reported as “increasing interaction strength”.

Variants of: B2
Conditions: with rel_human REL
Remark: another data set of the same source
With Y87C the “effect of a mutation on the interaction” value was “with no effect”.

Variants of: B2
Conditions: with rel_human REL
Remark: another data set of the same source
In the case of F102C, the “effect of a mutation on the interaction” value is reported as “with no effect”.

Variants of: B3
Conditions: with nos3_human NOS3, P29474
In the case of F133V, the “effect of a mutation on the interaction” value is reported as “with no effect”.

Variants of: B3
Conditions: with nos3_human NOS3, P29474
Remark: another data set of the same source
In the case of F133L, the “effect of a mutation on the interaction” value is reported as “with no effect”.

Variants of: B3
Conditions: with nos3_human NOS3, P29474
Remark: another data set of the same source
In the case of F102C, the “effect of a mutation on the interaction” value is reported as “with no effect”.

Variants of: B3
Conditions: with nos3_human NOS3, P29474
Remark: another data set of the same source
Y87C was tested, and the “effect of a mutation on the interaction” value was “with no effect”.

Variants of: B4
Conditions: with sdhb_human SDHB
Y87C was tested, and the “effect of a mutation on the interaction” value was “with no effect”.

Variants of: B4
Conditions: with sdhb_human SDHB
Remark: another data set of the same source
F133L was tested, and the “effect of a mutation on the interaction” value was “with no effect”.

Variants of: B4
Conditions: with sdhb_human SDHB
Remark: another data set of the same source
F133V was tested, and the “effect of a mutation on the interaction” value was “with no effect”.

Variants of: B4
Conditions: with sdhb_human SDHB
Remark: another data set of the same source
For F102C, the “effect of a mutation on the interaction” value was “with no effect”.

Variants of: B5
Conditions: with ikkb_human IKBKB
F102C was tested, and the “effect of a mutation on the interaction” value was “with no effect”.

Variants of: B5
Conditions: with ikkb_human IKBKB
Remark: another data set of the same source
In the case of F133L, the “effect of a mutation on the interaction” value is reported as “with no effect”.

Variants of: B5
Conditions: with ikkb_human IKBKB
Remark: another data set of the same source
For F133V, the “effect of a mutation on the interaction” value was “with no effect”.

Variants of: B5
Conditions: with ikkb_human IKBKB
Remark: another data set of the same source
In the case of Y87C, the “effect of a mutation on the interaction” value is reported as “with no effect”.

Variants of: B6
Conditions: with rasf8_human RASSF8, Q8NHQ8
Y87C was tested, and the “effect of a mutation on the interaction” value was “with no effect”.

Variants of: B6
Conditions: with rasf8_human RASSF8, Q8NHQ8
Remark: another data set of the same source
With F102C the “effect of a mutation on the interaction” value was “with no effect”.

Variants of: B6
Conditions: with rasf8_human RASSF8, Q8NHQ8
Remark: another data set of the same source
With F133L the “effect of a mutation on the interaction” value was “with no effect”.
